Measured values as given in the RNAGym collection of RNA variant scans (doi:10.7554/elife.80360).

B1: CPEB3 Ribozyme (parent)
chain: GGGGGCCACAGCAGAAGCGUUCACGUCGCGGCCCCUGUCAGAUUCUGGUGAAUCUGCGAAUUCUGCUGU

Variants of: B1
Test: self-cleavage, relative activity (ratio to wild type); higher = more cleavage; co-transcriptional

In order of falling self-cleavage:
1. GAGGGCCACAGCAGAAGCGUUCACGUCGCGGCCCCUGUCAGAUUCUGGUGAAUCUGCGAAUUCUGCUGC [G2A U69C]  0.457
2. GAGGGCCACUGCAGAAGCGUUCACGUCGCGGCCCCUGUCAGAUUCUGGUGAAUCUGCGAAUUCUGCUGU [G2A A10U]  0.336
3. GAGGGCCACAGCAGAAGCGUUCACGUCGCGGCCCCUGUCAGAUUCUGGUGAAUCUGCGAAUUCUGCUUU [G2A G68U]  0.335
4. GAGGGCCACAGCAGAAGCGUUCUCGUCGCGGCCCCUGUCAGAUUCUGGUGAAUCUGCGAAUUCUGCUGU [G2A A23U]  0.284
5. UGGGGCCACAGCAGAAGCGUUCACGUCGCGGCCCCUGUCAGAUUCUGGUGAAUCUGCGAAUUCUGCUGC [G1U U69C]  0.284
6. GAGGGCCACAGCAGAAGCGUUCACGUCGCGGCCCCUGUCAGAUUCUUGUGAAUCUGCGAAUUCUGCUGU [G2A G47U]  0.276
7. GAGGGCCACAGUAGAAGCGUUCACGUCGCGGCCCCUGUCAGAUUCUGGUGAAUCUGCGAAUUCUGCUGU [G2A C12U]  0.201
8. GAGGGCCACAGCAGAAGCGUUCACGUCGCGGCCCCUGUCAGGUUCUGGUGAAUCUGCGAAUUCUGCUGU [G2A A42G]  0.196
9. GAGGGCCCCAGCAGAAGCGUUCACGUCGCGGCCCCUGUCAGAUUCUGGUGAAUCUGCGAAUUCUGCUGU [G2A A8C]  0.194
10. GAGGGCCACAGCAGAAGCGUUCACGUCGCGGCCCCUGUCAGAUUCUGGAGAAUCUGCGAAUUCUGCUGU [G2A U49A]  0.179
11. GAGGGCCACAGCAGAGGCGUUCACGUCGCGGCCCCUGUCAGAUUCUGGUGAAUCUGCGAAUUCUGCUGU [G2A A16G]  0.179
12. GAGGGCCACAGCAGAAGCGUUCACGUCGCGGCCCCUGUCAGAUUCUGGUGACUCUGCGAAUUCUGCUGU [G2A A52C]  0.167
13. GAGGGCCACAGCAGGAGCGUUCACGUCGCGGCCCCUGUCAGAUUCUGGUGAAUCUGCGAAUUCUGCUGU [G2A A15G]  0.166
14. GAGGGCCACAGCAGAAGCGUUCACGUCGCGGCCCCUGUCAGAUUCUGGUGAAUCUGCGAAUUCUACUGU [G2A G65A]  0.163
15. UGGGGCCACAGCAGAAGCGUUCACGUCGCGGCCCCUGUCAGAUUCUGGUGAACCUGCGAAUUCUGCUGU [G1U U53C]  0.143
16. GAGGGCCACAGCAGAAGCGUUCACGUCGCGGCCCCUGUCAGAUUAUGGUGAAUCUGCGAAUUCUGCUGU [G2A C45A]  0.132
17. GAGGGCCACAGCUGAAGCGUUCACGUCGCGGCCCCUGUCAGAUUCUGGUGAAUCUGCGAAUUCUGCUGU [G2A A13U]  0.121
18. GAGGGCCACAGCAGAAGCGUUCACGUCGCGGCCCCUGUCAGAUUUUGGUGAAUCUGCGAAUUCUGCUGU [G2A C45U]  0.117
19. UGGGGCCACAGCAGAAGCGUUCACGUCGCGGCCCCUGUCAGAUUCUGGUGAAUCUGCGAACUCUGCUGU [G1U U61C]  0.117
20. GAGGGCCACAGCAGAAGCGUUCACGUCGCGGCCCCUGUCAGAUACUGGUGAAUCUGCGAAUUCUGCUGU [G2A U44A]  0.111
21. GAGGGCCACAGCAGAAGCGUUCACGUCGCGGCCCCUGUCAGAUUCUGGUGAAACUGCGAAUUCUGCUGU [G2A U53A]  0.111
22. GCGGGCCACAGCAGAAGCGUUCACGUCGCGGCCCCUGUCAGAUUCUGGUGAAUCUGCGGAUUCUGCUGU [G2C A59G]  0.106
23. GAGGGCCACAGCAGAAGCGUUCACGUCGCGGCCCCUGUCGGAUUCUGGUGAAUCUGCGAAUUCUGCUGU [G2A A40G]  0.105
24. GAGGGCCACAGCAGAAGCGUUCACGUCGCGGCCCCUGUCAGAUUCUGGUGAACCUGCGAAUUCUGCUGU [G2A U53C]  0.104
25. GAGGGCCACAGCAGAAGCGUUCACGUCGCGGCCCCUGUCAGAUUCUGGUGAAUCUGCGAAUUAUGCUGU [G2A C63A]  0.104
26. GCGGGCCACAGCAGAAGCGUUCUCGUCGCGGCCCCUGUCAGAUUCUGGUGAAUCUGCGAAUUCUGCUGU [G2C A23U]  0.1
27. GCGGGCCAUAGCAGAAGCGUUCACGUCGCGGCCCCUGUCAGAUUCUGGUGAAUCUGCGAAUUCUGCUGU [G2C C9U]  0.0977
28. UGGGGCCACAGCAGAAGCGUUCACGUCGCGGCCCCUGACAGAUUCUGGUGAAUCUGCGAAUUCUGCUGU [G1U U38A]  0.0964
29. GAGGGCCACAGCAGAAGCGUUCACGUCGCGGCCCCUGUCAGAUGCUGGUGAAUCUGCGAAUUCUGCUGU [G2A U44G]  0.0958
30. GAGGGCCACAGCAGAAGCGUUCACGUCGCGGCCCCUGUGAGAUUCUGGUGAAUCUGCGAAUUCUGCUGU [G2A C39G]  0.0948
31. GAGGGCCACAGCAGAAGCGUUCACGUCGCGGCCCCUGUCAGAUUCUGGUGAAUGUGCGAAUUCUGCUGU [G2A C54G]  0.0929
32. GCGGGCCACAGCAGAAGCGUUCACGUCGCGGCCCCUGUCAGCUUCUGGUGAAUCUGCGAAUUCUGCUGU [G2C A42C]  0.0895
33. GAGGGCCACAGCAGAAGCGUUCACAUCGCGGCCCCUGUCAGAUUCUGGUGAAUCUGCGAAUUCUGCUGU [G2A G25A]  0.0813
34. UGGGGCCACAGCAGAAGCGUUCACGUCGCGGCCCCUGUCAGAUUCCGGUGAAUCUGCGAAUUCUGCUGU [G1U U46C]  0.0797
35. GAGGGCCACAGCAGAAGCGUUCAUGUCGCGGCCCCUGUCAGAUUCUGGUGAAUCUGCGAAUUCUGCUGU [G2A C24U]  0.0737
36. GAGGGCCACAGCAGAAGCGUUCACGUCGCGUCCCCUGUCAGAUUCUGGUGAAUCUGCGAAUUCUGCUGU [G2A G31U]  0.0712
37. GAGGGCCACAGCAGAAGCGUUCACGUCGCGGCCCCUGUCAGAUUCUGGUGAAUCUGCGAAGUCUGCUGU [G2A U61G]  0.0696
38. GAGGGCCACAGCAGAAGCGUUAACGUCGCGGCCCCUGUCAGAUUCUGGUGAAUCUGCGAAUUCUGCUGU [G2A C22A]  0.0696
39. GAGGGCCACAGCAGAAGCGUUCACGUCGCGGCCCCUGUCAGAUUCUGGUGAAUCUGCGAUUUCUGCUGU [G2A A60U]  0.0695
40. GAGGGCCACAGCAGAAGCGUUCACGUCGCGGCCCCUGUCACAUUCUGGUGAAUCUGCGAAUUCUGCUGU [G2A G41C]  0.0676
41. GAGGGCGACAGCAGAAGCGUUCACGUCGCGGCCCCUGUCAGAUUCUGGUGAAUCUGCGAAUUCUGCUGU [G2A C7G]  0.063
42. GAGGGCCACAGCAGAAGCGUUCACGUCGCGGCGCCUGUCAGAUUCUGGUGAAUCUGCGAAUUCUGCUGU [G2A C33G]  0.0627
43. GAGGGCCACAGCAGAAGCCUUCACGUCGCGGCCCCUGUCAGAUUCUGGUGAAUCUGCGAAUUCUGCUGU [G2A G19C]  0.0616
44. GAGGGCCACAGCAGAAGCGUUCACGUCGCGGACCCUGUCAGAUUCUGGUGAAUCUGCGAAUUCUGCUGU [G2A C32A]  0.0579
45. GAGGGCCACAGCAGAAGCGUUCACGUCGCGGCCCCUGUCAGAUUCUGGUGAAUCUGCGAGUUCUGCUGU [G2A A60G]  0.0573
46. GAGGGCCACAGAAGAAGCGUUCACGUCGCGGCCCCUGUCAGAUUCUGGUGAAUCUGCGAAUUCUGCUGU [G2A C12A]  0.0566
47. GAGGGCCACAGCAGAAGCGUUCAAGUCGCGGCCCCUGUCAGAUUCUGGUGAAUCUGCGAAUUCUGCUGU [G2A C24A]  0.0565
48. GCGGGCCACAGCAGAAGCGUUCACGUCGCGGCCCCUGUCAGAUUCUGGUGUAUCUGCGAAUUCUGCUGU [G2C A51U]  0.056
49. GAGGGCCACAGCAGACGCGUUCACGUCGCGGCCCCUGUCAGAUUCUGGUGAAUCUGCGAAUUCUGCUGU [G2A A16C]  0.0551
50. GAGGGCCACAGCAGAAGCGUUCACGUCGCGGCCCCUGUCAGAUUCUGGUGAAUCUGCGAAAUCUGCUGU [G2A U61A]  0.0537
51. GAGGGCCACAGCAGAAGAGUUCACGUCGCGGCCCCUGUCAGAUUCUGGUGAAUCUGCGAAUUCUGCUGU [G2A C18A]  0.0515
52. GAGAGCCACAGCAGAAGCGUUCACGUCGCGGCCCCUGUCAGAUUCUGGUGAAUCUGCGAAUUCUGCUGU [G2A G4A]  0.0501
53. GCGGGCCACAGAAGAAGCGUUCACGUCGCGGCCCCUGUCAGAUUCUGGUGAAUCUGCGAAUUCUGCUGU [G2C C12A]  0.0486
54. UGGGGCCACAGCAGAAGCGUUCACGUCGCGGCCCCAGUCAGAUUCUGGUGAAUCUGCGAAUUCUGCUGU [G1U U36A]  0.0485
55. GAGGUCCACAGCAGAAGCGUUCACGUCGCGGCCCCUGUCAGAUUCUGGUGAAUCUGCGAAUUCUGCUGU [G2A G5U]  0.0444
56. GCGGGCCACAGCAGAAGGGUUCACGUCGCGGCCCCUGUCAGAUUCUGGUGAAUCUGCGAAUUCUGCUGU [G2C C18G]  0.0398
57. GAGGGCCACAGCAGAAGCGAUCACGUCGCGGCCCCUGUCAGAUUCUGGUGAAUCUGCGAAUUCUGCUGU [G2A U20A]  0.0398
58. GAGUGCCACAGCAGAAGCGUUCACGUCGCGGCCCCUGUCAGAUUCUGGUGAAUCUGCGAAUUCUGCUGU [G2A G4U]  0.0384
59. GCGGGCCACAGCAGAAGCGUUCACGUCGCGGCCCCUGUCAGAUUCUGGUGAUUCUGCGAAUUCUGCUGU [G2C A52U]  0.0375
60. GAGGGCCACAGCAGAAGCGUUCACGUCGCGCCCCCUGUCAGAUUCUGGUGAAUCUGCGAAUUCUGCUGU [G2A G31C]  0.0358
61. GAGGGCCACAGCAGAAGCGUUCACGUCGCGGCCCCUGUCCGAUUCUGGUGAAUCUGCGAAUUCUGCUGU [G2A A40C]  0.0341
62. GAGGGCCACAGCAGAACCGUUCACGUCGCGGCCCCUGUCAGAUUCUGGUGAAUCUGCGAAUUCUGCUGU [G2A G17C]  0.0329
63. GAGGGCCACAGCAGAAGCGCUCACGUCGCGGCCCCUGUCAGAUUCUGGUGAAUCUGCGAAUUCUGCUGU [G2A U20C]  0.0328
64. GCGGGCCACAGCCGAAGCGUUCACGUCGCGGCCCCUGUCAGAUUCUGGUGAAUCUGCGAAUUCUGCUGU [G2C A13C]  0.0327
65. GCGGGCGACAGCAGAAGCGUUCACGUCGCGGCCCCUGUCAGAUUCUGGUGAAUCUGCGAAUUCUGCUGU [G2C C7G]  0.0326
66. GAGGGCCACAGCAGAAGGGUUCACGUCGCGGCCCCUGUCAGAUUCUGGUGAAUCUGCGAAUUCUGCUGU [G2A C18G]  0.0324
67. GCGGGCCACAGCAGAAGCGUUCAUGUCGCGGCCCCUGUCAGAUUCUGGUGAAUCUGCGAAUUCUGCUGU [G2C C24U]  0.0323
68. GCGGGCCACAGCAGAAGCGUUCACGUCGCGGCCCCUGUCAGUUUCUGGUGAAUCUGCGAAUUCUGCUGU [G2C A42U]  0.0317
69. GAGCGCCACAGCAGAAGCGUUCACGUCGCGGCCCCUGUCAGAUUCUGGUGAAUCUGCGAAUUCUGCUGU [G2A G4C]  0.0317
70. GCGGGCCACAGCAGAAGCGUUCGCGUCGCGGCCCCUGUCAGAUUCUGGUGAAUCUGCGAAUUCUGCUGU [G2C A23G]  0.0311
71. GAGGGCCACAGCAGAAGCGUUCACGUCGCGGCCGCUGUCAGAUUCUGGUGAAUCUGCGAAUUCUGCUGU [G2A C34G]  0.03
72. GCGGGCCACAGCAGAAGCGUUCACGUCGCGGCCCCUGUCAGAUUCUGGUGAGUCUGCGAAUUCUGCUGU [G2C A52G]  0.0291
73. GAGGGCCACAGCAGAAGCGUUCACGUCCCGGCCCCUGUCAGAUUCUGGUGAAUCUGCGAAUUCUGCUGU [G2A G28C]  0.0268
74. GAGGGCCACAGCAGAAGCGUUCACGUCGCGGCCCCUGGCAGAUUCUGGUGAAUCUGCGAAUUCUGCUGU [G2A U38G]  0.0237
75. GCGGGCCGCAGCAGAAGCGUUCACGUCGCGGCCCCUGUCAGAUUCUGGUGAAUCUGCGAAUUCUGCUGU [G2C A8G]  0.0226
76. GCGGGCCACAGCAGAAGCGUUGACGUCGCGGCCCCUGUCAGAUUCUGGUGAAUCUGCGAAUUCUGCUGU [G2C C22G]  0.02
77. GAGGGCCACAGCAGAAGCGUUCACGUCGCGGGCCCUGUCAGAUUCUGGUGAAUCUGCGAAUUCUGCUGU [G2A C32G]  0.0194
78. GCGGGCCACAGCAGAAGCGUUCACGUUGCGGCCCCUGUCAGAUUCUGGUGAAUCUGCGAAUUCUGCUGU [G2C C27U]  0.0172
